Measured values as given in patent US20220275047A1 (published 2022).

Target: T1, MUC5AC peptide on HLA-DPA1*01:03 / HLA-DPB1*04:01 (human)
T1 peptide: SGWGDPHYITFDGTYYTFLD
Assay: multimer staining

binding result: recognises
B1: 05-MUC5AC4922-4941 (TCR, V domains shown)
Valpha: QTVTQSQPEMSVQEAETVTLSCTYDTSESNYYLFWYKQPPSRQMILVIRQEAYKQQNATENRFSVNFQKAAKSFSLKISDSQLGDTAMYFCAFMKRAETSGSRLTFGEGTQLTVNP
Vbeta: NAGVTQTPKFRVLKTGQSMTLLCAQDMNHEYMYWYRQDPGMGLRLIHYSVGEGTTAKGEVPDGYNVSRLKKQNFLLGLESAAPSQTSVYFCASSYWPTRETQYFGPGTRLLVL
